In publication PMC4027161 (Nucleic Acids Research, 2014):
Changes are numbered by the printed parent chain.

T1: monomeric form of PCNA2 (PCNA2m, R75A-F111E-R143A) (Thermococcus kodakarensis, UniProt Q5JFD3 1-253, R75A | F111E | R143A)
T1 sequence: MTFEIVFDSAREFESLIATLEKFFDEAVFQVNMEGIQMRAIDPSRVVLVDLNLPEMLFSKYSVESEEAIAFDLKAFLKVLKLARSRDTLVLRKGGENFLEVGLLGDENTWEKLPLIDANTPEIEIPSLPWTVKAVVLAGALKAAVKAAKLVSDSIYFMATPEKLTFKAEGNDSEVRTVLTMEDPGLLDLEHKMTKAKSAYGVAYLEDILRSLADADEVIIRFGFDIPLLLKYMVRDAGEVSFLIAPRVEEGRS

B1: Thermococcus kodakarensis PCNA1 (TK0535) (natural protein, UniProt Q5JF32 1-249, looked up)
chain: MPFEVVFDGAKEFADLIATASNLIDEAAFKFTEEGISMRAMDPSRVVLIDLNLPESIFSKYEVEEPETIGINMDQFKKILKRGKAKDTLILRKGDENFLEITFEGTAKRTFRLPLIDVEELELELPELPFTAKVVLLGEVLKEGIKDASLVSDAIKFIAKENEFTMKAEGETNEVEIRLTLEDEGLLDLEVEEETKSAYGIRYLSDMVKGIGKADEVILRFGNEMPLQMEYMIRDEGRLTFLLAPRVEE
B2: Thermococcales inhibitor of PCNA (TIP), encoded by TK0808 (natural protein, Thermococcus kodakarensis, UniProt Q5JH72 1-64, looked up)
chain: MDRKLDEFIGDATPKKVSKEKPVRRKKRLKPTSLDSFLPEEHINYFRDLRIGSKKIRNAKIEEL
B3: Thermococcus kodakarensis PCNA2 (TK0582) (natural protein)
chain: T1 sequence with A75R, E111F, A143R
B4: Methanothermobacter thermautotrophicus PCNA (mtPCNA) (natural protein, UniProt O27367 1-244, looked up)
chain: MFKAELNDPNILRTSFDAISSIVDEVQIQLSAEGLRLDALDRSHITYVHLELKAELFDEYVCDEPERINVDTEELMKVLKRAKANDRVILSTDEGNLIIQFEGEAVRTFKIRLIDIEYETPSPPEIEYENEFEVPFQLLKDSIADIDIFSDKITFRVDEDRFIASAEGEFGDAQIEYLHGERIDKPARSIYSLDKIKEMLKADKFSETAIINLGDDMPLKLTLKMASKEGELSFLLAPRIEAEE

Assays:
[1] = target: the molecule itself; assay: SEC; Superdex-200 (HR10/30); 100 ug of each protein in 200 ul of 25 mM Tris-HCl pH 8.0, 200 mM NaCl, 0.5 mM EDTA, 10% glycerol; fractions on SDS-PAGE, Coomassie
[2] = target: B1; assay: crystal structure; low resolution X-ray structure of the complex, unpublished observation; conditions: both partners purified
[3] = target: B3; assay: HDX-MS; 15 uM protein; PCNA monomer:TIP monomer 1:1, equilibrated at 4 C for 16 h; 20 mM sodium phosphate, 500 mM NaCl, pH 7.6; exchange at 3 C, 30 s to 60 min; pepsin digestion; conditions: both partners purified
[4] = target: T1, monomeric form of PCNA2 (PCNA2m, …); assay: SEC; Superdex-200 (HR10/30); 100 ug of each protein in 200 ul of 25 mM Tris-HCl pH 8.0, 200 mM NaCl, 0.5 mM EDTA, 10% glycerol; fractions on SDS-PAGE, Coomassie; conditions: both partners purified

| Binder | stoichiometry N [1] | stoichiometry N [2] [TIP per PCNA monomer] | binding result [3] | binding result [4] |
| --- | --- | --- | --- | --- |
| B1 | 3 | – | – | – |
| B2 | – | 1 | binds | binds |
| B3 | 3 | – | – | – |
| B4 | 3 | – | – | – |
